Laboratory results: publication PMC10731242, “Macromolecular crowding potently stimulates DNA supercoiling activity of Mycobacterium tuberculosis DNA gyrase”

Tests used:
Settings in all cases: protein: recombinant;recombinant, tags: His-TEV tag, removed by TEV protease;His-TEV tag, chain copies: 2;2, label: 3' Tamra~Q on FL1013, blunt
[1] = biological target: T1, DNA gyrase subunit A (GyrA);DNA gyrase subunit B (GyrB) (Mycobacterium …, UniProt P9WG47;P9WG45 1-838;1-675, |); test: EMSA; 2 mM Mg2+, 2 M glycine betaine
T1 sequence (P9WG47 whole entry, chain 1 of 2): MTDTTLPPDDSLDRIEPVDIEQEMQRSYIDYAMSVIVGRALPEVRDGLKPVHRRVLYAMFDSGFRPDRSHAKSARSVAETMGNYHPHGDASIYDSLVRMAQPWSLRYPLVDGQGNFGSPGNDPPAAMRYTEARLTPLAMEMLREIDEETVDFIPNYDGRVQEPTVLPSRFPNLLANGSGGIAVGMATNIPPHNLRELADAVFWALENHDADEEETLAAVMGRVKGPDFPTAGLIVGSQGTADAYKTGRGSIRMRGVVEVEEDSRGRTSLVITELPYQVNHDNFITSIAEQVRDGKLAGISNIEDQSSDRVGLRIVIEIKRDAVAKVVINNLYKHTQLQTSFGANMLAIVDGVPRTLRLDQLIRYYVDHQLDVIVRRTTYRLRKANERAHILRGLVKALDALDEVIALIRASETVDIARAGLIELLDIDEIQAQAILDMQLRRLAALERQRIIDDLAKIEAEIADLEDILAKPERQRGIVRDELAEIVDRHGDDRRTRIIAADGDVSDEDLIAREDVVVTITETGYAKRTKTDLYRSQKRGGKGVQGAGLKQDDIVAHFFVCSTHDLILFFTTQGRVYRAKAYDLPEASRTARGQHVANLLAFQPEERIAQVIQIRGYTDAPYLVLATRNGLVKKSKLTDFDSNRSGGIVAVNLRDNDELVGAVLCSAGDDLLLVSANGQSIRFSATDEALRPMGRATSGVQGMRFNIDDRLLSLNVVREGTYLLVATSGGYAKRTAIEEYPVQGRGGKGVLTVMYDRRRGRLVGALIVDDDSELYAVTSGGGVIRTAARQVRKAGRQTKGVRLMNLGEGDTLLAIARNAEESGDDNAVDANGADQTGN
T1 sequence (P9WG45 whole entry, chain 2 of 2): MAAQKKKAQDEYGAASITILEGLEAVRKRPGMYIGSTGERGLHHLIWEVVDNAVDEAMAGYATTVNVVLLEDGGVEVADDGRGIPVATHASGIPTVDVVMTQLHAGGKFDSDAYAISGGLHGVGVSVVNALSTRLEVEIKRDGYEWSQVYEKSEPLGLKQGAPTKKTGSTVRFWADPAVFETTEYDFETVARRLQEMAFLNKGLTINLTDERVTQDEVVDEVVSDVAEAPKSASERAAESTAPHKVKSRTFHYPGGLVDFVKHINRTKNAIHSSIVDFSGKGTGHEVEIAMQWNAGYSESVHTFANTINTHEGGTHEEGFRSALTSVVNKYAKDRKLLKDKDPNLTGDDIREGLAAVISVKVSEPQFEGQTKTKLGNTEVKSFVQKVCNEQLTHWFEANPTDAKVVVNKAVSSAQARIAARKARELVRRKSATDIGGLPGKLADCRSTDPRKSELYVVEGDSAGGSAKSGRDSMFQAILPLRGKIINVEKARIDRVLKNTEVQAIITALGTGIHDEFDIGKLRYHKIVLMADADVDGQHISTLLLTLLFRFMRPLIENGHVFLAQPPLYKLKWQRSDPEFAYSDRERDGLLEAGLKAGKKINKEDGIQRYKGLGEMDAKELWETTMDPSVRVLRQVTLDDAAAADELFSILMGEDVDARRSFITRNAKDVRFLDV

[2] = biological target: T1, DNA gyrase subunit A (GyrA);DNA gyrase …; test: EMSA; 2 mM Mg2+, 5% PEG400
[3] = biological target: T1, DNA gyrase subunit A (GyrA);DNA gyrase …; test: EMSA; 2 mM Mg2+, no crowding agent

B1: 50 bp DNA oligomer (FL1013/FL1014) (dsDNA)
DNA 1: TCAGTCCGACATCGGTCATGAATGACTATGCACGTAAACGAGATGCCAAC
DNA 2: GTTGGCATCTCGTTTACGTGCATAGTCATTCATGACCGATGTCGGACTGA
Question: How did the Kd [1] turn out when B1 was run?
Answer: 85 ± 6 nM

Question: And the Kd [2]?
Answer: 60 ± 24 nM

Question: What about the Kd [3] of the same binder?
Answer: 94 ± 4 nM
